Data on 2 molecules can be found in article PMC11467180.

This data set has as its target rA3GR8/E259A (Macaca mulatta (rhesus macaque), UniProt M1GSK9 1-138+=AEAG+147-383, E259A;internal_change). The data set is described as follows: EMSA.

Molecule TTTTAATTTT (ssDNA) [AA-DNA 10 nt] returned a Kd of 318 ± 64 nM.

In the case of TTTTGATTTT (ssDNA) [GA-DNA 10 nt], binding was characterised by a dissociation constant (Kd) of 473 ± 95 nM.
